The subject of series [1] is HeLa Kyoto. Nature of the series: solubility in G1/S (NP-40 vs SDS abundance) (log2 ratio); higher = more soluble. To be noted: cell cycle stage: G1/S.
Series [2] deals with HeLa Kyoto. Nature of the series: melting temperature (median over replicates), in situ; higher = more thermally stable.
For series [3], the system named is HeLa Kyoto. In words: solubility change mitosis vs G1/S (difference of NP-40 vs SDS log2 ratios) (log2 ratio difference); higher = more soluble in mitosis.
The subject of series [4] is HeLa Kyoto. In words: thermal stability score vs G1/S (z-score of summed log2 fold changes over temperatures); higher = more thermally stable than in G1/S.
[5] abbreviates: cell cycle stage: early G1 (4.5 h after nocodazole release).
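Throughout, for melting temperature (median over replicates), in situ: HeLa Kyoto cells synchronized by double thymidine or nocodazole block, proteins quantified by TMT10plex mass spectrometry, three independent biological replicates.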
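Throughout, for solubility change mitosis vs G1/S (difference of NP-40 vs SDS log2 ratios): synchronized HeLa Kyoto cells (double thymidine block for G1/S, nocodazole release for mitosis), protein amounts in NP-40 versus SDS lysates quantified by mass spectrometry, three biological replicates.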
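Throughout, for solubility in G1/S (NP-40 vs SDS abundance): HeLa Kyoto cells arrested at G1/S by double thymidine block, proteins quantified by TMT10plex mass spectrometry in mild NP-40 versus SDS extracts, three biological replicates.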
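Throughout, for thermal stability score vs G1/S (z-score of summed log2 fold changes over temperatures): synchronized HeLa Kyoto cells, proteins quantified by TMT10plex mass spectrometry, three biological replicates, mitosis taken 0.5 h after nocodazole release, G1/S directly after double thymidine block.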

Regarding “MESCYNPGLDGIIEYDDFKLNSSIVEPKEPAPETADGPYLVIVEQPKQRGFRFRYGCEGPSHGGLPGASSEKGRKTYPTVKICNYEGPAKIEVDLVTHSDPPRAHAHSLVGKQCSELGICAVSVGPKDMTAQFNNLGVLHVTKKNMMGTMIQKLQRQRLRSRPQGLTEAEQRELEQEAKELKKVMDLSIVRLRFSAFLRASDGSFSLPLKPVISQPIHDSKSPGASNLKISRMDKTAGSVRGGDEVYLLCDKVQKDDIEVRFYEDDENGWQAFGDFSPTDVHKQYAIVFRTPPYHKMKIERPVTVFLQLKRKRGGDVSDSKQFTYYPLVEDKEEVQRKRRKALPTFSQPFGGGSHMGGGSGGAAGGYGGAGGGGSLGFFPSSLAYSPYQSGAGPMGCYPGGGGGAQMAATVPSRDSGEEAAEPSAPSRTPQCEPQAPEMLQRAREYNARLFGLAQRSARALLDYGVTADARALLAGQRHLLTAQDENGDTPLHLAIIHGQTSVIEQIVYVIHHAQDLGVVNLTNHLHQTPLHLAVITGQTSVVSFLLRVGADPALLDRHGDSAMHLALRAGAGAPELLRALLQSGAPAVPQLLHMPDFEGLYPVHLAVRARSPECLDLLVDSGAEVEATERQGGRTALHLATEMEELGLVTHLVTKLRANVNARTFAGNTPLHLAAGLGYPTLTRLLLKAGADIHAENEEPLCPLPSPPTSDSDSDSEGPEKDTRSSFRGHTPLDLTCSTKVKTLLLNAAQNTMEPPLTPPSPAGPGLSLGDTALQNLEQLLDGPEAQGSWAELAERLGLRSLVDTYRQTTSPSGSLLRSYELAGGDLAGLLEALSDMGLEEGVRLLRGPETRDKLPSTAEVKEDSAYGSQSVEQEAEKLGPPPEPPGGLCHGHPQPQVH [NFKB2]”, the “solubility in G1/S (log2)” value in the series on HeLa Kyoto [1] is 0.18. Further, the melting temperature turned out to be 47.5 °C in the series with HeLa Kyoto [2] (cell cycle stage: G1/S) and 48.3 °C in the series with HeLa Kyoto [2] (cell cycle stage: mitosis). Further, the “solubility change mitosis (log2)” value with HeLa Kyoto [3] was -0.0485. For the same sequence, the thermal stability score in the series with HeLa Kyoto [4] (setting [5]) came out at 1.06; with HeLa Kyoto [4] (cell cycle stage: mitosis), 3.27.
In the case of “MESKALLVLTLAVWLQSLTASRGGVAAADQRRDFIDIESKFALRTPEDTAEDTCHLIPGVAESVATCHFNHSSKTFMVIHGWTVTGMYESWVPKLVAALYKREPDSNVIVVDWLSRAQEHYPVSAGYTKLVGQDVARFINWMEEEFNYPLDNVHLLGYSLGAHAAGIAGSLTNKKVNRITGLDPAGPNFEYAEAPSRLSPDDADFVDVLHTFTRGSPGRSIGIQKPVGHVDIYPNGGTFQPGCNIGEAIRVIAERGLGDVDQLVKCSHERSIHLFIDSLLNEENPSKAYRCSSKEAFEKGLCLSCRKNRCNNLGYEINKVRAKRSSKMYLKTRSQMPYKVFHYQVKIHFSGTESETHTNQAFEISLYGTVAESENIPFTLPEVSTNKTYSFLIYTEVDIGELLMLKLKWKSDSYFSWSDWWSSPGFAIQKIRVKAGETQKKVIFCSREKVSHLQKGKAPAVFVKCHDKSLNKKSG [LPL]”, in the series on HeLa Kyoto [1], the “solubility in G1/S (log2)” value was -0.0225. The melting temperature with HeLa Kyoto [2] (cell cycle stage: G1/S) was found to be 53.9 °C; with HeLa Kyoto [2] (cell cycle stage: mitosis), 53.7 °C. For the same sequence, in the series with HeLa Kyoto [3], the “solubility change mitosis (log2)” value is -0.028. Moreover, the figures for the thermal stability score in the series on HeLa Kyoto [4] (setting [5]) and in the series on HeLa Kyoto [4] (cell cycle stage: mitosis) were -1.96 and -2.52, respectively.
As for “MESPGESGAGSPGAPSPSSFTTGHLAREKPAQDPLYDVPNASGGQAGGPQRPGRVVSLRERLLLTRPVWLQLQANAAAALHMLRTEPPGTFLVRKSNTRQCQALCMRLPEASGPSFVSSHYILESPGGVSLEGSELMFPDLVQLICAYCHTRDILLLPLQLPRAIHHAATHKELEAISHLGIEFWSSSLNIKAQRGPAGGPVLPQLKARSPQELDQGTGAALCFFNPLFPGDLGPTKREKFKRSFKVRVSTETSSPLSPPAVPPPPVPVLPGAVPSQTERLPPCQLLRRESSVGYRVPAGSGPSLPPMPSLQEVDCGSPSSSEEEGVPGSRGSPATSPHLGRRRPLLRSMSAAFCSLLAPERQVGRAAAALMQDRHTAAGQLVQDLLTQVRAGPEPQELQGIRQALSRARAMLSAELGPEKLLSPKRLEHVLEKSLHCSVLKPLRPILAARLRRRLAADGSLGRLAEGLRLARAQGPGAFGSHLSLPSPVELEQVRQKLLQLLRTYSPSAQVKRLLQACKLLYMALRTQEGEGAGADEFLPLLSLVLAHCDLPELLLEAEYMSELLEPSLLTGEGGYYLTSLSASLALLSGLGQAHTLPLSPVQELRRSLSLWEQRRLPATHCFQHLLRVAYQDPSSGCTSKTLAVPPEASIATLNQLCATKFRVTQPNTFGLFLYKEQGYHRLPPGALAHRLPTTGYLVYRRAEWPETQGAVTEEEGSGQSEARSRGEEQGCQGDGDAGVKASPRDIREQSETTAEGGQGQAQEGPAQPGEPEAEGSRAAEE [RIN1]”, the “solubility in G1/S (log2)” value with HeLa Kyoto [1] was found to be 0.282. The melting temperature is 48.9 °C with HeLa Kyoto [2] (cell cycle stage: G1/S) and 48.6 °C in the series with HeLa Kyoto [2] (cell cycle stage: mitosis). In addition, in the series on HeLa Kyoto [3], the “solubility change mitosis (log2)” value was -0.062. In addition, the thermal stability score worked out at 0.0327 in the series with HeLa Kyoto [4] (setting [5]) and 1.21 in the series with HeLa Kyoto [4] (cell cycle stage: mitosis).
With “MESRDPAQPMSPGEATQSGARPADRYGLLKHSREFLDFFWDIAKPEQETRLAATEKLLEYLRGRPKGSEMKYALKRLITGLGVGRETARPCYSLALAQLLQSFEDLPLCSILQQIQEKYDLHQVKKAMLRPALFANLFGVLALFQSGRLVKDQEALMKSVKLLQALAQYQNHLQEQPRKALVDILSEVSKATLQEILPEVLKADLNIILSSPEQLELFLLAQQKVPSKLKKLVGSVNLFSDENVPRLVNVLKMAASSVKKDRKLPAIALDLLRLALKEDKFPRFWKEVVEQGLLKMQFWPASYLCFRLLGAALPLLTKEQLHLVMQGDVIRHYGEHVCTAKLPKQFKFAPEMDDYVGTFLEGCQDDPERQLAVLVAFSSVTNQGLPVTPTFWRVVRFLSPPALQGYVAWLRAMFLQPDLDSLVDFSTNNQKKAQDSSLHMPERAVFRLRKWIIFRLVSIVDSLHLEMEEALTEQVARFCLFHSFFVTKKPTSQIPETKHPFSFPLENQAREAVSSAFFSLLQTLSTQFKQAPGQTQGGQPWTYHLVQFADLLLNHSHNVTTVTPFTAQQRQAWDRMLQTLKELEAHSAEARAAAFQHLLLLVGIHLLKSPAESCDLLGDIQTCIRKSLGEKPRRSRTKTIDPQEPPWVEVLVEILLALLAQPSHLMRQVARSVFGHICSHLTPRALQLILDVLNPETSEDENDRVVVTDDSDERRLKGAEDKSEEGEDNRSSESEEESEGEESEEEERDGDVDQGFREQLMTVLQAGKALGGEDSENEEELGDEAMMALDQSLASLFAEQKLRIQARRDEKNKLQKEKALRRDFQIRVLDLVEVLVTKQPENALVLELLEPLLSIIRRSLRSSSSKQEQDLLHKTARIFTHHLCRARRYCHDLGERAGALHAQVERLVQQAGRQPDSPTALYHFNASLYLLRVLKGNTAEGCVHETQEKQKAGTDPSHMPTGPQAASCLDLNLVTRVYSTALSSFLTKRNSPLTVPMFLSLFSRHPVLCQSLLPILVQHITGPVRPRHQACLLLQKTLSMREVRSCFEDPEWKQLMGQVLAKVTENLRVLGEAQTKAQHQQALSSLELLNVLFRTCKHEKLTLDLTVLLGVLQGQQQSLQQGAHSTGSSRLHDLYWQAMKTLGVQRPKLEKKDAKEIPSATQSPISKKRKKKGFLPETKKRKKRKSEDGTPAEDGTPAATGGSQPPSMGRKKRNRTKAKVPAQANGTPTTKSPAPGAPTRSPSTPAKSPKLQKKNQKPSQVNGAPGSPTEPAGQKQHQKALPKKGVLGKSPLSALARKKARLSLVIRSPSLLQSGAKKKAQVRKAGKP [MYBBP1A]”, the “solubility in G1/S (log2)” value in the series with HeLa Kyoto [1] was -0.42. The results for the melting temperature in the series on HeLa Kyoto [2] (cell cycle stage: G1/S) and with HeLa Kyoto [2] (cell cycle stage: mitosis) were 48.1 °C and 48.9 °C, respectively. Moreover, the “solubility change mitosis (log2)” value in the series on HeLa Kyoto [3] came to 0.349. In addition, the figures for the thermal stability score in the series with HeLa Kyoto [4] (setting [5]) and with HeLa Kyoto [4] (cell cycle stage: mitosis) were 0.7 and 2.36, respectively.

Source of the values: the supplement of paper PMC5998384.
